Experimental data from patent US8349320 (LA JOLLA INSTITUTE FOR ALLERGY AND IMMUNOLOGY, dated 2013).

Key:
[1] = target: T1, full length human LIGHT expressed on EL4 cells (human, UniProt O43557 1-240); experiment: flow cytometry saturation binding, Fc fusion on EL4 cells expressing human LIGHT
T1 construct: whole, on cells; also called EL4-hLIGHT; hLIGHT-EL4 cells

[2] = target: T2, mouse BTLA expressed on cells (mouse, UniProt Q7TSA3 30-306); experiment: flow cytometry, graded hHVEM-Fc on cells expressing mouse BTLA (FIG. 3A)
T2 construct: whole, on cells; the GFP part is not described further; also called mBTLA
T2 sequence (looked up): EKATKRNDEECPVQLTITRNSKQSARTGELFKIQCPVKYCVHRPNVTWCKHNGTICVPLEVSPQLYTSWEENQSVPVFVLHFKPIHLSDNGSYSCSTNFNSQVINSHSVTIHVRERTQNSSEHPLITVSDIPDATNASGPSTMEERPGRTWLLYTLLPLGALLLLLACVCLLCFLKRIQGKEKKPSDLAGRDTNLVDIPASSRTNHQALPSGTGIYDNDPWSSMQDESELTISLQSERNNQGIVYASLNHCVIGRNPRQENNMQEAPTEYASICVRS

[3] = target: T3, human BTLA expressed on cells (human, UniProt Q7Z6A9 31-289); experiment: flow cytometry saturation binding, Fc fusion on cells expressing human BTLA (FIG. 3A)
T3 construct: whole, on cells; also called hBTLA

[4] = target: T2, mouse BTLA expressed on cells; experiment: flow cytometry saturation binding, Fc fusion on cells expressing mouse BTLA (FIG. 3B)
[5] = target: T3, human BTLA expressed on cells; experiment: flow cytometry saturation binding, Fc fusion on cells expressing human BTLA (FIG. 3B)

T1 sequence (O43557 whole entry, the tested form may be a part): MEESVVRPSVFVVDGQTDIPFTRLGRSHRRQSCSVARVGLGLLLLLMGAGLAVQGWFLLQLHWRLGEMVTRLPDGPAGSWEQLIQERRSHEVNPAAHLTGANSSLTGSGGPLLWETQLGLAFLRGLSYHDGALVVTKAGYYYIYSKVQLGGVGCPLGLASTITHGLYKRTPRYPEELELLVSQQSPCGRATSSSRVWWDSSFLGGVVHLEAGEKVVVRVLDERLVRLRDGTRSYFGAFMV

B1: human HVEM-Fc (Fc fusion, UniProt Q92956 39-202, looked up)
chain: LPSCKEDEYPVGSECCPKCSPGYRVKEACGELTGTVCEPCPPGTYIAHLNGLSKCLQCQMCDPAMGLRASRNCSRTENAVCGCSPGHFCIVQDGDHCAACRAYATSSPGQRVQKGGTESQDTLCQNCPPGTFSPNGTLEECQHQTKCSWLVTKAGAGTSSSHWV
modifications: in the FIG. 3H assay biotinylated with NHS-PEO4-Biotin, 2 biotin molecules per HVEM-Fc (sites not given)
notes: extracellular domain; Ecto domain of the TNFR fused to Fc of human IgG1; also called hHVEM-Fc; hHVEM:Fc; not shown: Fc region of human IgG1
- Kd [1]: 11 nM
- binding result [2]: no binding
- Kd [3]: 112 nM

B2: mouse HVEM-Fc (Fc fusion, UniProt Q80WM9 39-206, looked up)
chain: QPSCRQEEFLVGDECCPMCNPGYHVKQVCSEHTGTVCAPCPPQTYTAHANGLSKCLPCGVCDPDMGLLTWQECSSWKDTVCRCIPGYFCENQDGSHCSTCLQHTTCPPGQRVEKRGTHDQDTVCADCLTGTFSLGGTQEECLPWTNCSAFQQEVRRGTNSTDTTCSSQ
notes: extracellular domain; Expressed in insect cells (baculovirus); also called mHVEM-Fc; mHVEM:Fc; not shown: Fc region of human IgG1
- Kd [4]: 24 nM
- Kd [5]: 27 nM
